Test results published in the supplement of paper PMC7125110.
± gives the standard error. For part of these data: Fewer inactive variants are shown than the library holds.

B1: glmS ribozyme (parent)
chain: AUAAAAGCGCCAGAACUACAGAAAUGUAGUUGACGAGGAGGAGGUUUAUCGAAUUUUCGGCGGAUGCCUCCAAA

Legend:
Details in all cases: with glucosamine-6-phosphate
glucosamine-6-phosphate [1] = variants of: B1; test: kcat; higher = faster cleavage; RNA array
Procedure, shortened: (§1)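 Tiles bearing barcoded ribozyme variants, transcribed in situ by E. coli RNA polymerase on sequenced MiSeq chips, were imaged over ~14 h at 37 °C using a hybridised Cy3 probe. Glucosamine-6-phosphate was supplied at 40 μM to 10 mM in HEPES/KCl/Mg(OAc)2 buffer. kobs came from one- or two-exponential decay fits to normalised per-tile medians, and weighted Michaelis–Menten fits then provided kcat and KM.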

glucosamine-6-phosphate [2] = variants of: B1; test: self-cleavage kobs at 40 uM GlcN6P; higher = faster cleavage; RNA array
Procedure, shortened: as §1

glucosamine-6-phosphate [3] = variants of: B1; test: self-cleavage kobs at 10000 uM GlcN6P; higher = faster cleavage; RNA array
Procedure, shortened: as §1

glucosamine-6-phosphate [4] = variants of: B1; test: KM; higher = weaker cofactor use; RNA array
Procedure, shortened: as §1

glucosamine-6-phosphate [5] = variants of: B1; test: self-cleavage kobs at 2500 uM GlcN6P; higher = faster cleavage; RNA array
Procedure, shortened: as §1

glucosamine-6-phosphate [6] = variants of: B1; test: self-cleavage kobs at 160 uM GlcN6P; higher = faster cleavage; RNA array
Procedure, shortened: as §1

glucosamine-6-phosphate [7] = variants of: B1; test: self-cleavage kobs at 640 uM GlcN6P; higher = faster cleavage; RNA array
Procedure, shortened: as §1

Variant	kcat (glucosamine-6-phosphate [1])	self-cleavage kobs at 40 uM GlcN6P (glucosamine-6-phosphate [2])	self-cleavage kobs at 10000 uM GlcN6P (glucosamine-6-phosphate [3])	KM (glucosamine-6-phosphate [4])	self-cleavage kobs at 2500 uM GlcN6P (glucosamine-6-phosphate [5])	self-cleavage kobs at 160 uM GlcN6P (glucosamine-6-phosphate [6])	self-cleavage kobs at 640 uM GlcN6P (glucosamine-6-phosphate [7])
C61G C71U	< 1e-05 s⁻¹	< 1e-05 s⁻¹	< 1e-05 s⁻¹	–	–	–	–
G13U U69G	2.13e-05 ± 6.6e-06 s⁻¹	–	–	–	–	–	–
A14U G44U	7.47e-05 ± 1.1e-05 s⁻¹	< 1e-05 s⁻¹	5.55e-05 ± 8.3e-06 s⁻¹	3310 ± 1300 µM	3.42e-05 ± 8.1e-06 s⁻¹	–	–
A14U G44A	6.83e-05 ± 2.6e-06 s⁻¹	–	5.38e-05 ± 6.7e-06 s⁻¹	2730 ± 310 µM	3.21e-05 ± 6.8e-06 s⁻¹	< 1e-05 s⁻¹	–
A48U U65G	0.000116 ± 1e-05 s⁻¹	< 1e-05 s⁻¹	9.9e-05 ± 9.7e-06 s⁻¹	1390 ± 430 µM	8.19e-05 ± 1e-05 s⁻¹	–	3.11e-05 ± 9.7e-06 s⁻¹
A39G U57C	0.000566 ± 0.0002 s⁻¹	< 1e-05 s⁻¹	0.000351 ± 6.4e-05 s⁻¹	–	0.00013 ± 2.3e-05 s⁻¹	–	5.87e-05 ± 1.5e-05 s⁻¹
G32U C67A	0.000412 ± 4.2e-05 s⁻¹	–	0.000296 ± 2.2e-05 s⁻¹	4200 ± 780 µM	0.00014 ± 1.6e-05 s⁻¹	–	5.83e-05 ± 6.7e-06 s⁻¹
U49C C50U	< 1e-05 s⁻¹	< 1e-05 s⁻¹	< 1e-05 s⁻¹	–	–	–	–
G59A U69C	5.07e-05 ± 2.8e-06 s⁻¹	–	4.7e-05 ± 1e-05 s⁻¹	943 ± 240 µM	–	–	–
U47G A53G	0.00632 ± 0.0012 s⁻¹	0.000319 ± 4.7e-05 s⁻¹	0.0074 ± 0.00097 s⁻¹	804 ± 250 µM	0.00362 ± 0.00064 s⁻¹	0.000975 ± 0.00019 s⁻¹	0.00317 ± 0.00055 s⁻¹
C68A C70G	< 1e-05 s⁻¹	< 1e-05 s⁻¹	< 1e-05 s⁻¹	–	–	–	–
A14C C70A	0.000106 ± 1.1e-05 s⁻¹	–	0.000102 ± 9.4e-06 s⁻¹	413 ± 170 µM	9.55e-05 ± 8e-06 s⁻¹	4.49e-05 ± 9.3e-06 s⁻¹	5.59e-05 ± 6.8e-06 s⁻¹
A15C U49G	0.000113 ± 1.2e-05 s⁻¹	–	9.51e-05 ± 1.9e-05 s⁻¹	1520 ± 550 µM	8.06e-05 ± 2.4e-05 s⁻¹	–	–
U30A C70A	6.65e-05 ± 2.4e-05 s⁻¹	–	5.12e-05 ± 1.3e-05 s⁻¹	–	7.75e-05 ± 1.6e-05 s⁻¹	–	–
G29C C67A	0.000293 ± 7.2e-05 s⁻¹	–	0.000363 ± 5.2e-05 s⁻¹	–	0.000163 ± 3.2e-05 s⁻¹	5.79e-05 ± 1.3e-05 s⁻¹	0.000128 ± 1.9e-05 s⁻¹
U30C C70G	5.67e-05 ± 5.3e-06 s⁻¹	–	5.52e-05 ± 1e-05 s⁻¹	–	4.88e-05 ± 9e-06 s⁻¹	5.73e-05 ± 1.4e-05 s⁻¹	6.49e-05 ± 1.1e-05 s⁻¹
C10A A14U G59U C71G	1.42e-05 ± 3.8e-06 s⁻¹	–	–	–	–	–	–
U47C A52U	0.00034 ± 5.8e-05 s⁻¹	–	0.000231 ± 4.7e-05 s⁻¹	3930 ± 1200 µM	0.000145 ± 2.3e-05 s⁻¹	–	3.84e-05 ± 1.6e-05 s⁻¹
